One molecule from patent US20090098142A1 (published 2009) can be followed below.

The target of this experiment is T1, cynomolgus monkey IL-13 (NHP IL-13) (cynomolgus monkey, UniProt Q5I6E4 21-132 (Macaca thibetana entry)).
T1 construct: Also used here for the IL-13 found in cynomolgus monkey serum; also called non-human primate IL-13; cynomolgus IL-13
T1 chain: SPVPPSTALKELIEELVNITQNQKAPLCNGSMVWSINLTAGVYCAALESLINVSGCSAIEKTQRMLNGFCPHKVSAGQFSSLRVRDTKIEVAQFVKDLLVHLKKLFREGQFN
Description: direct NHP IL-13 binding ELISA. From the text:
The humanized MJ 2-7 V3 and V4 were produced in COS cells by combining hMJ 2-7 VH V1 with hMJ 2-7 VL V3 and V4. The antigen binding properties of the antibodies were examined by direct NHP IL-13 binding ELISA.
(ELISA stands for enzyme-linked immunosorbent assay.)

B1: humanized MJ 2-7 V3 (hMJ 2-7 VH V1 with hMJ 2-7 VL V3) (antibody, V domains shown)
VH: QVQLVQSGAEVKKPGASVKVSCKASGFNIKDTYIHWVRQAPGQRLEWMGRIDPANDNIKYDPKFQGRVTITRDTSASTAYMELSSLRSEDTAVYYCARSEENWYDFFDYWGQGTLVTVSS
VL: DVVMTQSPLSLPVTLGQPASISCRSSQSLVYSDGNTYLNWFQQRPGQSPRRLIYKVSNRFSGVPDRFSGSGSGTDFTLKISRVEAEDVGVYYCFQGSHIPYTFGGGTKVEIK
notes: Produced in COS cells; VL V3: DPK18 with human germline CDR1 and CDR2 and the CDR3 of mouse MJ2-7; also called hMJ2-7 V3; Version 3
With B1, the binding result is reported as “no binding”.
